In article PMC7048817, “Structure of the processive human Pol δ holoenzyme” (Nature Communications, 2020):

T1: p125, catalytic subunit of human Pol δ (human, UniProt P28340 1-1107)
T1 construct: DNA polymerase delta catalytic subunit p125, human; Stood in the assay as a subunit of the Pol δ heterotetramer; source: Sf9 insect cells, coexpressed with p50, p66 and p12 (MultiBac baculovirus), purified as the heterotetramer
T1 sequence: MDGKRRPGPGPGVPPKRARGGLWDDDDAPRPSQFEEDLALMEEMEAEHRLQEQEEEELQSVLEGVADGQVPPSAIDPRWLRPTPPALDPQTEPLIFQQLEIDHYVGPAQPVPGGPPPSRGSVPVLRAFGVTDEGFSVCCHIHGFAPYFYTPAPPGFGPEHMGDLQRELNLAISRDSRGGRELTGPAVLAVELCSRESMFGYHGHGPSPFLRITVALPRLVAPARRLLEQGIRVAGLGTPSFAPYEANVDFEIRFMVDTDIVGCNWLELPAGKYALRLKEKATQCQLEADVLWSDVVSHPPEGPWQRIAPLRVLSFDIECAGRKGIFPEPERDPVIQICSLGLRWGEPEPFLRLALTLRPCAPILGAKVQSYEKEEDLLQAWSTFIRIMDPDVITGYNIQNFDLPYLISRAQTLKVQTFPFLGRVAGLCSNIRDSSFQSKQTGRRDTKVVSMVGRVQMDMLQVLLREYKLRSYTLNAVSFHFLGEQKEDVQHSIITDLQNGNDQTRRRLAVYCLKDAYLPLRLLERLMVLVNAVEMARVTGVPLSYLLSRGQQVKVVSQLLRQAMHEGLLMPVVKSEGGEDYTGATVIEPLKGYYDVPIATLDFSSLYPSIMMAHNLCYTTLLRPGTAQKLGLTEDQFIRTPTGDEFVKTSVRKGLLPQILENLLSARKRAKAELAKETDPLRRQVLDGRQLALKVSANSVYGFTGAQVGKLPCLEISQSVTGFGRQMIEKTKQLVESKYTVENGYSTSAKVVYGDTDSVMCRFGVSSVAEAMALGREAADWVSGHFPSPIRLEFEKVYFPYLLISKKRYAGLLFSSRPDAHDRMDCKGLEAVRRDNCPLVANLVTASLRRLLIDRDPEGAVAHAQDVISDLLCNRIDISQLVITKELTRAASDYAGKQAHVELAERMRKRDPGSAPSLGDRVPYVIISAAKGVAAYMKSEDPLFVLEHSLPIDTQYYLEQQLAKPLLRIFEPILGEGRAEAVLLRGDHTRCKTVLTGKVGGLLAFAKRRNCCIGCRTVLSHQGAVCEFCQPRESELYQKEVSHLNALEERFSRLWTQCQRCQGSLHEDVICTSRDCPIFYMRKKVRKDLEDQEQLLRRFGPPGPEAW

B1: p12, regulatory subunit of human Pol δ (natural protein)
chain: GRKRLITDSYPVVKRREGPAGHSKGELAPELGEEPQPRDEEEAELELLRQFDLAWQYGPCTGITRLQRWCRAKQMGLEPPPEVWQVLKTHPGDPRFQCSLWHLYPL
notes: Stood in the assay as a subunit of the Pol δ heterotetramer; source: Sf9 insect cells, coexpressed with p125, p50 and p66 (MultiBac baculovirus), purified as the heterotetramer
B2: DLDV-PCNA (PCNA D120A, L121A, D122A, V123E) (natural protein, human, UniProt P12004 1-261, looked up)
chain: MFEARLVQGSILKKVLEALKDLINEACWDISSSGVNLQSMDSSHVSLVQLTLRSEGFDTYRCDRNLAMGVNLTSMSKILKCAGNEDIITLRAEDNADTLALVFEAPNQEKVSDYEMKLMAAAEEQLGIPEQEYSCVVKMPSGEFARICRDLSHIGDAVVISCAKDGVKFSASGELGNGNIKLSQTSNVDKEEEAVTIEMNEPVQLTFALRYLNFFTKATPLSSTVTLSMSADVPLVVEYKIADMGHLKYYLAPKIEDEEGS
notes: proliferating cell nuclear antigen, human, full length, with D120A, L121A, D122A and V123E; source: E. coli BL21 (DE3), purified (HisTrap, HiTrap Q, Superdex 200)
B3: p66, regulatory subunit of human Pol δ (natural protein)
chain: ADQLYLENIDEFVTDQNKIVTYKWLSYTLGVHVNQAKQMLYDYVERKRKENSGAQLHVTYLVSGSLIQNGHSCHKVAVVREDKLEAVKSKLAVTASIHVYSIQKAMLKDSGPLFNTDYDILKSNLQNCSKFSAIQCAAAVPRAPAESSSSSKKFEQSHLHMSSETQANNELTTNGHGPPASKQVSQQPKGIMGMFASKAAAKTQETNKETKTEAKEVTNASAAGNKAPGKGNMMSNFFGKAAMNKFKVNLDSEQAVKEEKIVEQPTVSVTEPKLATPAGLKKSSKKAEPVKVLQKEKKRGKRVALSDDETKETENMRKKRRRIKLPESDSSEDEVFPDSPGAYEAESPSPPPPPSPPLEPVPKTEPEPPSVKSSSGENKRKRKRVLKSKTYLDGEGCIVTEKVYESESCTDSEEELNMKTSSVHRPPAMTVKKEPREERKGPKKGTAALGKANRQVSITGFFQRK
notes: DNA polymerase delta subunit p66, human; last visible residue in the map is Ala144; Stood in the assay as a subunit of the Pol δ heterotetramer; also called p66N (its visible N-terminal part); source: Sf9 insect cells, coexpressed with p125, p50 and p12 (MultiBac baculovirus), purified as the heterotetramer

What was measured:
[1] = molecular target: T1, p125, catalytic subunit of human Pol δ; test: cryo-EM structure; Pol δ–DNA–PCNA–dTTP complex with 25/38 primer/template DNA (3' dideoxy terminator); 25 mM HEPES-KOH pH 7.5, 100 mM potassium acetate, 10 mM calcium chloride, 0.02% NP-40, 0.4 mM biotin, 1 mM DTT; 4.1 Å map from the sample frozen after mixing (conformers at 4.3, 4.9, 8.1 Å), 3.0 Å map from the gel-filtered sample in which FEN1 is invisible; settings: both partners purified
[2] = molecular target: T2, p50, regulatory subunit of human Pol δ (human, UniProt P49005 1-469); test: as above; settings: both partners purified
T2 construct: DNA polymerase delta subunit p50 (B-subunit), human; Stood in the assay as a subunit of the Pol δ heterotetramer; also called B-subunit; source: Sf9 insect cells, coexpressed with p125, p66 and p12 (MultiBac baculovirus), purified as the heterotetramer
T2 sequence (P49005 whole entry, stated change not applied): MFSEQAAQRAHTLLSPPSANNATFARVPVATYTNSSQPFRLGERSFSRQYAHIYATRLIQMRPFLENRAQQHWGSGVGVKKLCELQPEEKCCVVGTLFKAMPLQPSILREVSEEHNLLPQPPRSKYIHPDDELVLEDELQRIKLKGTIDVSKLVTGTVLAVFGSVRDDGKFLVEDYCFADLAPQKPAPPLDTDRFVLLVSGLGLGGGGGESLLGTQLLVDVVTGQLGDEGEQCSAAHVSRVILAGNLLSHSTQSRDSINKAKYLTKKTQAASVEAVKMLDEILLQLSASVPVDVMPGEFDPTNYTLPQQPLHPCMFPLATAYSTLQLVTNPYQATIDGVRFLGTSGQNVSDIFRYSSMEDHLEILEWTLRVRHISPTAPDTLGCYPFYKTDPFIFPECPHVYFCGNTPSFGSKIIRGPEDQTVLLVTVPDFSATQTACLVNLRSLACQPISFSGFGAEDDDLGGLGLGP

[3] = molecular target: the molecule itself; test: SEC; HiLoad 16/600 Superdex 200 pg in PCNA storage buffer; 2 mg of each PCNA form in 250 μL, 1 mL/min; markers carbonic anhydrase (27 kDa) and conalbumin (75 kDa); monomers to trimer

Binder	binding result [1]	binding result [2]	stoichiometry N [3]
B1	binds	binds	–
B2	–	–	3
B3	–	binds	–
